Reference: IntAct's records for PubMed 24612608

B1: Beta-secretase 1 (Homo sapiens), P56817 (parent)
chain: MAQALPWLLLWMGAGVLPAHGTQHGIRLPLRSGLGGAPLGLRLPRETDEEPEEPGRRGSFVEMVDNLRGKSGQGYYVEMTVGSPPQTLNILVDTGSSNFAVGAAPHPFLHRYYQRQLSSTYRDLRKGVYVPYTQGKWEGELGTDLVSIPHGPNVTVRANIAAITESDKFFINGSNWEGILGLAYAEIARPDDSLEPFFDSLVKQTHVPNLFSLQLCGAGFPLNQSEVLASVGGSMIIGGIDHSLYTGSLWYTPIRREWYYEVIIVRVEINGQDLKMDCKEYNYDKSIVDSGTTNLRLPKKVFEAAVKSIKAASSTEKFPDGFWLGEQLVCWQAGTTPWNIFPVISLYLMGEVTNQSFRITILPQQYLRPVEDVATSQDDCYKFAISQSSTGTVMGAVIMEGFYVVFDRARKRIGFAVSACHVHDEFRTAAVEGPFVTLDMEDCGYNIPQTDESTLMTIAYVMAAICALFMLPLCLMVCQWRCLRCLRQQHDDFADDISLLK
partner: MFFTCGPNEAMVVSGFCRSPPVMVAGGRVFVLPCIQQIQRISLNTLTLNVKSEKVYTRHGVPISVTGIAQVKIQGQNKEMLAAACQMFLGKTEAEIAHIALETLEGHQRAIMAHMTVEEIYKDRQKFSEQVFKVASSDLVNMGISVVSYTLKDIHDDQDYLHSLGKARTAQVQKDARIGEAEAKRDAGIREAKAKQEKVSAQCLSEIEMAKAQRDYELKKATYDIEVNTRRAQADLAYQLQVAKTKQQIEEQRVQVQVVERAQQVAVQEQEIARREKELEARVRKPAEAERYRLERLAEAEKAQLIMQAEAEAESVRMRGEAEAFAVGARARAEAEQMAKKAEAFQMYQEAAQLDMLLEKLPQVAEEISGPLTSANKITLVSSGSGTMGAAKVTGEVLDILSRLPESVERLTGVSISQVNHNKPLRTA

Variants of: B1
Conditions: with flot1_rat Flot1, Q9Z1E1

| Variant | effect of a mutation on the interaction |
| --- | --- |
| L499A;L500A | disrupting interaction |
